The values that follow come from WO2009082624A2 (dated 2009).

Test [1] addresses T1, human IL-23 (p19/p40 heterodimer), recombinant (human, UniProt Q9NPF7 20-189; P29460 23-328).
T1 sequence 1: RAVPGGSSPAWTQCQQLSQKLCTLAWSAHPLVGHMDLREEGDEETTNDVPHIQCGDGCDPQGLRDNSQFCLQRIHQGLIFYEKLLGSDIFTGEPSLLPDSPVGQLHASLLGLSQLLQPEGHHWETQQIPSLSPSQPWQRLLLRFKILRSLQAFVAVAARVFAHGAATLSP
T1 sequence 2: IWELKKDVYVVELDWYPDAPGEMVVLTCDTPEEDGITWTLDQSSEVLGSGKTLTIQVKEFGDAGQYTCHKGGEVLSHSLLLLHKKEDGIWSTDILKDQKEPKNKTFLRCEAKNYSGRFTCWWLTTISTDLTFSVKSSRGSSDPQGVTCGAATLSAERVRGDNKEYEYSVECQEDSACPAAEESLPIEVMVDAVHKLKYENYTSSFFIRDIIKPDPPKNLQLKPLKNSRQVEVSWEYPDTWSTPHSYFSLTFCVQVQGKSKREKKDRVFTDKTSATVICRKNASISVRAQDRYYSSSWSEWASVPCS
Briefly: cell-based or functional assay.

For test [2], the target named is T1, human IL-23 (p19/p40 heterodimer), …. Nature of the test: SPR off-rate analysis (Biacore T-100), IL-23 immobilised, 1:1 model. For orientation: SPR reads the build-up and loss of mass on a sensor chip optically.
For test [3] the target is unchanged. Nature of the test: SPR (Biacore T-100), IL-23 immobilised on CM5, bivalent interaction model.

B1: human IL-23R-Fc soluble receptor (ZymoGenetics) (Fc fusion)
chain: GITNINCSGHIWVEPATIFKMGMNISIYCQAAIKNCQPRKLHFYKNGIKERFQITRINKTTARLWYKNFLEPHASMYCTAECPKHFQETLICGKDISSGYPPDIPDEVTCVIYEYSGNMTCTWNAGKLTYIDTKYVVHVKSLETEEEQQYLTSSYINISTDSLQGGKKYLVWVQAANALGMEESKQLQIHLDDIVIPSAAVISRAETINATVPKTIIYWDSQTTIEKVSCEMRYKATTNQTWNVKEFDTNFTYVQQSEFYLEPNIKYVFQVRCQETGKRYWQPWSSPFFHKTPETVPQVTSKAFQHDTWNSGLTVASISTGHLTSDNRGDIG
What is called koff is the first-order rate constant of dissociation. For B1, the “IC50, IL-23-mediated IL-17A/A production in murine splenocytes” value in test [1] amounted to 26 nM. Further, in test [2], the off-rate (koff) is roughly 0.0004 s⁻¹. Besides, the Kd in test [3] was 0.8 nM.
